Test results as given in article doi:10.1101/2023.10.23.563578.

Target: recombinant Ena3A (major subunit of L-ENA fibers) (Bacillus paranthracis NVH 0075-95)
Test: cryo-EM structure

- stoichiometry N: 7
Substance: recombinant Ena3A (major subunit of L-ENA fibers) (natural protein)
